The values below come from patent CN114685670A (SHANGHAI LYOFIE MEDICAL SCIENCE AND TECH LIMITED COMPANY, dated 2022).

Test [1] deals with T1, human CLDN18.2 (human, UniProt P56856-2 1-261).
T1 construct: whole, on cells; also called hCLDN18.2; Claudin 18.2
T1 sequence (looked up): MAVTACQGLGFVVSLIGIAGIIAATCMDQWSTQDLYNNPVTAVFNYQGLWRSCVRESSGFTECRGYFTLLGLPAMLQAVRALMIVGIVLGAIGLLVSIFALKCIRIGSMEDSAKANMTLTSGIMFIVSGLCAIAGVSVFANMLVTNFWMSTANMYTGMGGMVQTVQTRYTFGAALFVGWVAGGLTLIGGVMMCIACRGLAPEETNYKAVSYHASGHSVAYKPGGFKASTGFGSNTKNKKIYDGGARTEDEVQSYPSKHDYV
Description: flow cytometry on 18.2-K562 cells, 8-point antibody dilution, Anti-Human IgG FITC detection. Background: Flow cytometry measures light scatter and fluorescence of single cells or particles in a stream.

Test [2] deals with T1, human CLDN18.2. Description: flow cytometry, hybridoma supernatant on CHO stable cells.

B1: A8抗体 (as tested in Example 6) (antibody, V domains shown)
VH: QVQLQQPGAELVKPGASVKLSCKASGYTFTSYWMHWVRQRPGQGLEWIGMIHPNSGSTNYNGKFKSKATLTVDKSSSTAYMQLSSLTSEDSAVYFCARGGYYGNSLDFWGQGTSLTVSS
VL: DIVMTQSPSSLTVTAREKVTMSCKSSQSLLNSGNQKNYLTWYQQKPGQPPKLLIYWASTRESGVPDRFTGSGSGTDFTLTISSVQAEDLAVYYCQNAYSYPFTFGSGTKLEIK
In test [1], B1 gave a 抗体亲和力 (affinity from FACS titration, EC50-like) of 0.675 µg/mL.

B2: C18-16-1H1-1A8 (antibody, V domains shown)
VH: QVQLQQPGAELVKPGASVKLSCKASGYTFTSYWMHWVRQRPGQGLEWIGMIHPNSGSTNYNGKFKSKATLTVDKSSSTAYMQLSSLTSEDSAVYFCARGGYYGNSLDFWGQGTSLTVSS
VL: DIVMTQSPSSLTVTAREKVTMSCKSSQSLLNSGNQKNYLTWYQQKPGQPPKLLIYWASTRESGVPDRFTGSGSGTDFTLTISSVQAEDLAVYYCQNAYSYPFTFGSGTKLEIKR
notes: also called A8抗体; C18-16-1H1-1A8重组抗体
Turning to B2, in test [2], the binding result is on record as “binds”.
